Test: yeast display, Sf9 membrane polyspecificity reagent, FACS + sequencing; frameworks hold sequencing errors
How it was run: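 Nanobodies from a synthetic yeast display library (Saccharomyces cerevisiae BJ5465), induced 36–48 hours with galactose, were stained 1 hour at 4 °C with 10% biotinylated, detergent-solubilized Sf9 membrane reagent, enriched on streptavidin microbeads, then FACS-sorted. Anti-HA (expression) and streptavidin (reagent binding) fluorescence set low and high (top ~1%) gates. Polyreactivity labels come from the gate of origin. Genes were colony-PCR amplified, MiSeq 2 × 250 sequenced and filtered by CDR length.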

Sequence | polyreactivity (PSR sort gate)
QVQLVESGGGLVQAGGSLRLSGAASGRTLKWYAMGWYRQPPGKERELVAAISWSGGSTYYADSVKGRFTISRDNAKNTVYVQMNSLKPEDTAVYYCAAYYIYSSVGKSLYASMEYWGQGTQVTVSS | low polyreactivity
QVQLVESGGGLVQAGGSLRLSGAASGSTFQYYAMGWYRQAPGKERELVAAISDGTNTNYADSVKGRFTISRDNAKNTVYLQMNSLKPEDTAVYYCAARFSSIVKYVGIGTDEYDYWGQGTQVTVSS | low polyreactivity
QVQLVESGGGLVQAGGSLRLSGAASGSTFRGYAMGWYRQAPGKERELFAAMTYISDSTYYADSVKGRFTISRDNAKNTVYLQMNSLKPEDTAVYYCNAYYDGDWRYTSQETGDHWGQGTQVTVSS | low polyreactivity
QVQLVESGGGLVQAGGSLRLSLAASGSIFSYYAMGWYRQAPWKERELVAAISYSGSDTYYADSVKGRFTISRDNAKNTVYLQMNSLNPEDTAVYYCAAEDPSYSYDYWGQGTQVTVSS | low polyreactivity
QVQLVESGGGLVQAGGSLRLSLAASGSNFSSYAMGWYRQAPGKEREWVAAIRLIGGTTYYADSVKGRFTISRDNAKNTVYLQMNSLKPEDTAVYYCNAPSYPDYIYWSQRYDYDYWGQGTKVTVSS | low polyreactivity
QVQLVESGGGLVQAGGSLRLSRAASGIMFGSYAMGWYRQAPGKERELVAAITSRGGSTYYADSVKGRFTISRDNAKNTVYLQMISLKPEDTAVYYCADVLYYWRVVYYVYADTGDYWGQCTQVTVSS | high polyreactivity
QVQLVESGGGLVQAGGSLRLSRAASGRIFHLYAMGWYRQAPGKERELVAAITGRGGSTYYADSVKGRFTISRDNAKNTVYLQMNSLKPEDTAVYYCAAYEFGFLRYYSGRSYYYWGQGTQVTVSS | high polyreactivity
QVQLVESGGGLVQAGGSLRLSRAASGRTFYGYAMGWYRQAPGKESELVARIRSGGSTNYADSVKGRFTISRDNAKNTFYLQMNSLIPEDTAVYYCAARPGAAGYKYYYWGQGTQVTVSS | high polyreactivity
QVQLVESGGGLVQAGGSLRLSSAASGFICATYSMGWYRQAPGKERELVASIRKSGGSTYYADSVKGRFTISRDNAKNTVYLQMNSLKPEDTAVYYCAKVYRYYPKYNYWGQGTQVTVSS | high polyreactivity
QVQLVESGGGLVQAGGSLRLSSAASGFIFEDYAMGWYREAPGKARELFAAISRRGGSTYYADSVKGRFTISRDNAQNTVYLQMNSLKPEDTADYYCAARKRYRPGERYEYWGQGTQVTVSS | high polyreactivity
QVQLVESGGGLVQAGGSLRLSSAASGFIFEPYAMGWYRQAPGKERELVAAIRWSDGSTFYADSVKGRFTISRDTAKNTVYLQMNSLKPEDSAVYYCNAVYEHRRVGWVTIDYGYWGQGTQVTVSS | low polyreactivity
QVQLVESGGGLVQAGGSLRLSSAASGFIFPAYAMGWYRQAPGKDRELVAAISKSGGRTYYADSVKGRFTISRDNAKNTVYLQMNSLKPEDTAVYYCNKYRYPREQYTWKYAWGYDYWGQGTQVTVSS | high polyreactivity
QVQLVESGGGLVQAGGSLRLSSAASGFIFRRYAMGWYRQAPGKERELVAAISGSGGRTYYADSVKGRFTISRDNAKNSVYLQMNSLKPEDTAVYYCAADQGSLLYDYWGQGTKVTVSS | high polyreactivity
QVQLVESGGGLVQAGGSLRLSSAASGFTFEENAMGWYRQAPGKERELVAAINWSGGNTYYADSVKGRFTISRDNAKNTVYLQMNSLKPEDTAVYYCAAVSTRYYYSVGPYYGYDYWVQGTQVTVSS | high polyreactivity
QVQLVESGGGLVQAGGSLRLSSAASGFTFSDNAMGWYRQAPGKERELVAAISRSGGNTHYADSVKGRFTISRDNAKNTVYLQMNSLKPEDTAVYYCAKYLYKSRIRSTFDYWGQGTQVTVSS | high polyreactivity
QVQLVESGGGLVQAGGSLRLSSAASGFVCNAMGWYRQAPGKERDLVAAIDSSGGNTYYADSVKGRFTISRDNAKNTVYLQMNSMKPEDTAVYYCAARYVERHTDYYYWGQGTQVTVSS | low polyreactivity
QVQLVESGGGLVQAGGSLRLSSAASGGTFGFNAMGWYRQAPGKERELVSGISSRGGSTYYADSVKGRFTISRDYAKNTVYLQMNSLKPEDTAVYYCNARQYPGRSWYRYDYWGQGTQVTVSS | high polyreactivity
QVQLVESGGGLVQAGGSLRLSSAASGIICAIYAMGWYRQAPGKERELVAAITWRGGSTYYADSVKGRFTISRDNAKNSVYFQKNRLKPEDTAVYYCAAVTKSLYGYDYWGQGTQVNVSS | low polyreactivity
QVQLVESGGGLVQAGGSLRLSSAASGITFGAYAMGWYRPAPGKERELVAAIRRSDGSTYYADSVKGRFTISRDNAKNTVDLQINSLKPEETAVYYCAADEGLYQGYEYDYWGHGTQVTVSS | high polyreactivity
QVQLVESGGGLVQAGGSLRLSSAASGITFGRNTMGWYRQAPGKEREFVAAIDSGGNTYADSVQGRFTISRDNAKNTVYLQMNSLKPEDTAVYYCAVAGGEFSSYGYLGQGTQVTVSS | low polyreactivity
QVQLVESGGGLVQAGGSLRLSSAASGITFRNYAMGWSRQAPGKERELVAAITRGGRTNYADSVKGRFTISRDNAKNTVYLQMNSLKPEDTAVYYCATGRDSNFGNSYYYWGQGTQVTVSS | high polyreactivity
QVQLVESGGGLVQAGGSLRLSSAASGITFTRNAMGWYRQAPGKERELVATIDSGDSTYYADSVKGRFTISRDNAKNTVYLQMNSQKPEDTAVYYCAAEWYGYEPSYWYYWPYEYWGQGTQVTVSS | high polyreactivity

Sequence | polyreactivity (PSR sort gate)
QVQLVESGGGLVQAGGSLRLSSAASGLIFRHNAMGWYRQAPGKERELVAAISSTGGRTYYADSVKGRFTISRDNAKNTVYLQMNSLKPEDTAVYYCAARHTKALWSPQNGYYWGQGTQVTVSS | high polyreactivity
QVQLVESGGGLVQAGGSLRLSSAASGLIFWAYAMGWYRQAPGKERELVAAINSGGRTYYADSVKGRFTISRDNAKNTVYLQMNSLKPEDTAVYYCAAAGVYSSDYWGQGTQVTVSS | low polyreactivity
QVQLVESGGGLVQAGGSLRLSSAASGLTFQEYAMGWYRQAPGKESELVAAISWSGGSTYYADSVKGRFTISRDNAKNTVYLQMNSLKPEDTAVYYCAAEAYEEYITGWYAYDYWGQGTQVTVSS | high polyreactivity
QVQLVESGGGLVQAGGSLRLSSAASGLTFTYYVMGWYRQAPGKERELVAAITVSGGSTYYADSVKGRFTISRDNAKNTVYLQMNSLKPEDTAVYYCAADAYSGYSDYYWGQGTQVTVSS | low polyreactivity
QVQLVESGGGLVQAGGSLRLSSAASGLTIAPYARGWYRPAPGKVWELVAAITQRGSSTYYADSVKGRFTISRDNAKNTVYLQMNSLKRVDTAVYYCAARYRARYYWGQGTQVTVSS | high polyreactivity
QVQLVESGGGLVQAGGSLRLSSAASGNINSWNTMGWYRQAPGKERELVAAITFRGTRTFYADSVKGRFTISRDNAKNTVYLQMNSLKPDDTAVFYCAARYYYSYSLGYDYWGQGTQVTVSS | high polyreactivity
QVQLVESGGGLVQAGGSLRLSSAASGNTIYGYAMGWYRQAPGNERELVASITLSGDSTYYADSVKGRFTISRDNAKNTVYLQMNSLKPEDTAVYYCAGVYTYPLGYYHYTYDYWGQGTQVTVSS | low polyreactivity
QVQLVESGGGLVQAGGSLRLSSAASGRIFAHNAMGWSRQAPGKERELVAAITWSGGSTYYADSVKGRFTISRDNAKNTVYLQMNSLKPEDTAVYYCNTDSHGHLYIYWGQGNQVTVSS | low polyreactivity
QVQLVESGGGLVQAGGSLRLSSAASGRIFPGYSMGWYRQAPGKERELVASISRTGRTNYADSVKGRFTNSRDNAKNTVYLPMHSLKPEDTAVYYCAAGIVVTGYDYWGQGTQVSVSS | low polyreactivity
QVQLVESGGGLVQAGGSLRLSSAASGRIFRRNTMGWYRQAPGKERELVAAITSSGGSTYADSVKGRFTISRDNAKNTVYLQMNSLKPEDTAVYYCATYVAYHRGYRTYDHWGQGTQVTVSS | low polyreactivity
QVQLVESGGGLVQAGGSLRLSSAASGRIFSDYDMGWYRQAHGKERELVAAITSGGITNYADSVKGRFTISRDNAKNTVYLQMNSLKPEDTAVYYCATGRRRYYFREYYYWGQGTQVTVSS | high polyreactivity
QVQLVESGGGLVQAGGSLRLSSAASGRIFWTNAMGWYRQAPGKERELVAGITWRGGSTYYADSVKGRFTISRDNAKNTVSLQMNSLKPEDTAVYYCASRQGWYSGFDYWGQGTQVTVSS | high polyreactivity
QVQLVESGGGLVQAGGSLRLSSAASGRIFYNYAMGWYRQAPGKERELVAAISVSGGSTYYADSVKGRFTISRDNAKNTVYLQMNSLKPEDTAVYYCAAGRGYTYNYWGQGSQVTVSS | high polyreactivity
QVQLVESGGGLVQAGGSLRLSSAASGRMFHFNAMGWYRQARGKERELVARITFSGGSTYYADSVKGRFTISRDNAKNTVYLQMNSLKPEDTAVYYCAVDAPPIFYEGGDYWGQGTQVTVSS | low polyreactivity
QVQLVESGGGLVQAGGSLRLSSAASGRNFGPYTMRWSRQAPGKERELVATISYSGSTTYYADSVKGRFTISRDNAKNTVYLQMNSLKPEDTAVYYCNAQYYVFITFDYWGQGTQVTVSS | high polyreactivity
QVQLVESGGGLVQAGGSLRLSSAASGRTFHSYARGWYRQSPGKERELVAGMSWGGTRTTYADSVKGRFTLSRDNAKNTVYLQMNSLKPEDTADYYCNAVYYALGRSPPDYGYWGQGTQVTVSS | low polyreactivity
QVQLVESGGGLVQAGGSLRLSSAASGRTFNVNAMGLYRQAPGKERELVAAIDFSDGRTYYADSVKGRFTISRDNAKNTVYLQMNSLKPADTAVYYCARSFRVGKTWYDYWGQGTQVTVSS | high polyreactivity
QVQLVESGGGLVQAGGSLRLSSAASGRTFQTNAMGWYRQAPGKERELVAAISSTGGSTYYADSVKGRFTISRDNAKNTVYLQMNSLKPEDTAVYYCNAGRTYRYDFWGQGTQVTVSS | high polyreactivity
QVQLVESGGGLVQAGGSLRLSSAASGRTFSYNTMGWYSQAPGQERELVARITWGGGSTNYAVSVKGRFTISRDNAKNTVYLQMNSLKPEDTAVYYCAAGPSVPYGPQKVDYWGQGTLVTVSS | low polyreactivity
QVQLVESGGGLVQAGGSLRLSSAASGRTFVNYTMGWYRQAPGIERELVAAITSSGGSTYYADSVKGRFTISRDNAKNTVYLQMNSLKPEDTAVYYCAAAKFDLSFWLYYWGQGTQVTVSS | low polyreactivity
QVQLVESGGGLVQAGGSLRLSSAASGRTFYLNAMGWYRQAPGKERELVAAIRISGGSTYYADSVKGRFTISRDNAKNTVYLQMKSLKPEDTAVYYCIAGPYHALSPTVSEYGYWGQGSQVTVSS | low polyreactivity

From the nanobody polyreactivity screen of Harvey et al. (2022)
